In PMC4225490, “Crystal structure of the γ-hydroxymuconic semialdehyde dehydrogenase from Pseudomonas sp. strainWBC-3, a key enzyme involved in para-Nitrophenol degradation” (BMC Structural Biology, 2013):

Assays:
[1] = target: γ-hydroxymuconic semialdehyde dehydrogenase PnpE from Pseudomonas sp. strain WBC-3 (Pseudomonas sp. strain WBC-3); assay: crystal structure; apo-PnpE, space group P21, 2.7 Å; eight monomers in the asymmetric unit; crystals grown from 20% PEG3350, 0.2 M KNO3 at 20°C
[2] = target: T1, PnpE, γ-hydroxymuconic semialdehyde dehydrogenase (Pseudomonas sp. WBC-3, UniProt C1I208); assay: X-ray crystal structure, […] Å; format: binding; conditions: co-crystallised with 1 mM NAD, 0.1 M Bicine pH 8.5, 20% PEG10000, 20 °C; cofactor site
T1 construct: recombinant His-tagged in E. coli BL21(DE3), pET29b NdeI/XhoI; Ni-NTA, Source-Q, Superdex-200; homodimer (four dimers per asymmetric unit)
T1 sequence (C1I208 1-487): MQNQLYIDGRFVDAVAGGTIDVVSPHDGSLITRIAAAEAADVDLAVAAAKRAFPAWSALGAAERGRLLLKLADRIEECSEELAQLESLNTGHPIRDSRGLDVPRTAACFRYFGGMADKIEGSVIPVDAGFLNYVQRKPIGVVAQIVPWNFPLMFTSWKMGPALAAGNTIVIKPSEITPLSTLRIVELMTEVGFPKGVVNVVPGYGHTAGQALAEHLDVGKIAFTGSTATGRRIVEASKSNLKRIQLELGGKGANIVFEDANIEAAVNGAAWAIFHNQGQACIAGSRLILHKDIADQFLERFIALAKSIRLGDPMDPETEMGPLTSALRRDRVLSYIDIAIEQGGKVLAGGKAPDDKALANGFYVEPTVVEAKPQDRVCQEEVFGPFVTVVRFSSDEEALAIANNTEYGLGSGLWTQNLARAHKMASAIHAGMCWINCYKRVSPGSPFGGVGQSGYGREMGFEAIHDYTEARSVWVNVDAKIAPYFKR

Compound	stoichiometry N [1]	X-ray crystal structure, 3.1 Å [2]
γ-hydroxymuconic semialdehyde dehydrogenase PnpE from Pseudomonas sp. strain WBC-3 (enzyme)	2	
NC(=O)c1ccc[n+]([C@@H]2O[C@H](COP(=O)(O)OP(=O)(O)OC[C@H]3O[C@@H](n4cnc5c(N)ncnc54)[C@H](O)[C@@H]3O)[C@@H](O)[C@H]2O)c1 [NAD]		In the PnpE-NAD complex structure, NAD is situated in a cleft of PnpE.
